Data as given in PMC12564070, “Rapid and Quantitative Detection of TNF-α in Human Tears Using a Portable Electrochemiluminescence-Based Device”.

Key:
IL-6 = IL-6 (UniProt P05231 30-212); assay: electrochemiluminescence aptasensor (Apt-VSM/ITO electrode); 1 ng/mL IL-6, interference test; negligible ECL variation; Aptamer immobilized on VSM/ITO electrode, 0.5% BSA block, 0.1 M PBS rinse; binding buffer, pH and temperature not given in the material
TNF-alpha = TNF-alpha (Homo sapiens, UniProt P01375 77-233); assay: electrochemiluminescence aptasensor (Apt-VSM/ITO electrode); linear 0.1-200 pg/mL, LOD 0.089 pg/mL; Ru luminophore/TPrA; Aptamer immobilized on VSM/ITO electrode, 0.5% BSA block, 0.1 M PBS rinse; binding buffer, pH and temperature not given in the material; details: protein: commercial; chain copies: 3
TNF-alpha, sequence (P01375 77-233): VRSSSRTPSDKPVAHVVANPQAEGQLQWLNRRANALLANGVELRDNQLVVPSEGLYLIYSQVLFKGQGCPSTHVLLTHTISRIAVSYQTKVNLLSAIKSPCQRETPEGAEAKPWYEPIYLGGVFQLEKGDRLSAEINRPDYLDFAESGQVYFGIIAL

IL-6, sequence (P05231 30-212): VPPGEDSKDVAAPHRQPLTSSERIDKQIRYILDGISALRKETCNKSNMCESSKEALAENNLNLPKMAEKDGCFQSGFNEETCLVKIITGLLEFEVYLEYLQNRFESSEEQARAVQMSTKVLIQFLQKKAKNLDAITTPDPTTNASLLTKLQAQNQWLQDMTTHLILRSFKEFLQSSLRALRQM

B1: TNF-alpha aptamer (ssDNA)
DNA: GCGCCACTACAGGGGAGCTGCCATTCGAATAGGTGGGCCGC
modifications: amino-modified (end not stated), coupled to GPTMS epoxy groups on VSM/ITO electrode
B1: no binding (IL-6); binds (TNF-alpha).
